Reference: the RNAGym collection of RNA variant scans (doi:10.7554/elife.80360)

B1: HDV Ribozyme (parent)
chain: GGCCGGCAUGGUCCCAGCCUCCUCGCUGGCGCCGGCUGGGCAACAUUCCGAGGGGACCGUCCCCUCGGUAAUGGCGAAUGGGACCCA

Variants of: B1
Assay: self-cleavage, relative activity (ratio to wild type); higher = more cleavage; co-transcriptional

Row | Variant | self-cleavage
1 | C32A U60C | 0.213
2 | C32U G81C | 0.248
3 | C33G A71U | 0.213
4 | C33U G76A | 0.978
5 | C33U A45U | 0.57
6 | G34C C57G | 0.0978
7 | G34A C63A | 0.231
8 | G34C U79C | 0.227
9 | C32U A71G | 0.903
10 | C32U A71U | 0.565
11 | C33G G34A | 0.0831
12 | C33G C66A | 0.198
13 | G34A U60C | 0.258
14 | G34A A78U | 0.0489
15 | C33G G54C | 0.143
16 | C32A U69C | 0.161
17 | G34C A78C | 0.0898
18 | G34C A78G | 0.0755
19 | C32U U60A | 0.782
20 | C32U C75G | 0.17
21 | G34C C41G | 0.107

Row | Variant | self-cleavage
22 | G34C A71G | 0
23 | G34C A71C | 0.201
24 | C32U U46A | 0.573
25 | C33G A51U | 0.0811
26 | C33G A51C | 0.246
27 | G34C C36A | 0.0707
28 | C32G C49G | 0.135
29 | C32U C66U | 0.926
30 | C32U G50U | 0.844
31 | C32U G50A | 0.862
32 | C33A C57G | 0.332
33 | C32G C44G | 0.0426
34 | C33U U79A | 0.684
35 | G34C U37G | 0
36 | G34C U37C | 0.156
37 | C32G U37C | 0.264
38 | C32A G82C | 0.0396
39 | C33A A83U | 0.217
40 | G34U A78U | 0.121
41 | C32G A43G | 0.0489
42 | C33A G34C | 0.108

Row | Variant | self-cleavage
43 | C32A G38U | 0.181
44 | C33U G39A | 0.182
45 | C33G C85G | 0.151
46 | C33G G55U | 0.204
47 | C32G G52C | 0.208
48 | C32G U65A | 0.0545
49 | C33A A42U | 0.0314
50 | C33A C58G | 0.332
51 | G34C G76A | 0.163
52 | C33A G67U | 0.253
53 | C33G C64U | 0.306
54 | G34U G40U | 0.0882
55 | C33U G40U | 0.78
56 | C32U A56G | 0.872
57 | G34A G74C | 0.102
58 | C33A U47C | 0.0692
59 | C33A U47A | 0.0378
60 | C33A C85A | 0.18
61 | C33U G68C | 0.789
62 | C33U G68U | 0.678
63 | G34C C44U | 0.0739

Row | Variant | self-cleavage
64 | C32A C84A | 0
65 | C33G G38U | 0.246
66 | C33G G82U | 0
67 | C32U C85U | 0.725
68 | G34U G53C | 0.136
69 | C32U C84A | 0.753
70 | G34A C84A | 0.126
71 | C33G U79C | 0.0875
72 | C33G U79A | 0.0755
73 | C32U C86A | 0.69
74 | G34C C62G | 0.0639
75 | C33U U60C | 0.773
76 | C32A G52U | 0.134
77 | C32A G53A | 0.234
78 | C32G U79A | 0.19
79 | C32G U79G | 0.172
80 | C32A U37C | 0.203
81 | C33G A43C | 0.0723
82 | C33G A43G | 0
83 | C32U G73A | 0.364
